{"source": "patent US20130209454A1", "assay_in_all_cases": "cell-based or functional assay", "key": {"[1]": {"biological_target": "Env of HIV-1 strain WEAU_d15_410_787 (HIV-1)"}, "[2]": {"biological_target": "Env of HIV-1 strain TRJO4551.58 (HIV-1)"}, "[3]": {"biological_target": "HIV-1 Env of strain R2184.c04 (HIV-1)"}, "[4]": {"biological_target": "HIV-1 Env of strain TRO.11 (HIV-1)"}, "[5]": {"biological_target": "HIV-1 Env of strain 191084 B7-19 (HIV-1)"}, "[6]": {"biological_target": "HIV-1 Env of strain 3301.v1.c24 (HIV-1)"}, "[7]": {"biological_target": "Env of HIV-1 strain R1166.c01 (HIV-1)"}, "[8]": {"biological_target": "HIV-1 Env of strain T278-50 (HIV-1)"}, "[9]": {"biological_target": "Env of HIV-1 strain THRO4156.18 (HIV-1)"}, "[10]": {"biological_target": "Env of HIV-1 strain A07412M1.vrc12 (HIV-1)"}, "[11]": {"biological_target": "Env of HIV-1 strain 1056_10_TA11_1826 (HIV-1)"}, "[12]": {"biological_target": "HIV-1 Env of strain ZM109F.PB4 (HIV-1)"}, "[13]": {"biological_target": "HIV-1 Env of strain ZM233M.PB6 (HIV-1)"}, "[14]": {"biological_target": "Env of HIV-1 strain P1981_C5_3 (HIV-1)"}, "[15]": {"biological_target": "HIV-1 Env of strain Ce1086_B2 (HIV-1)"}, "[16]": {"biological_target": "HIV-1 Env of strain A07412M1.vrc12 (HIV-1)"}, "[17]": {"biological_target": "Env of HIV-1 strain Du156.12 (HIV-1)"}, "[18]": {"biological_target": "HIV-1 Env of strain SC05_8C11_2344 (HIV-1)"}, "[19]": {"biological_target": "Env of HIV-1 strain HIV-16055-2.3 (HIV-1)"}, "[20]": {"biological_target": "Env of HIV-1 strain BJOX025000.01.1 (HIV-1)"}, "[21]": {"biological_target": "Env of HIV-1 strain C4118.c09 (HIV-1)"}, "[22]": {"biological_target": "HIV-1 Env of strain X1254_c3 (HIV-1)"}, "[23]": {"biological_target": "Env of HIV-1 strain Du422.1 (HIV-1)"}, "[24]": {"biological_target": "HIV-1 Env of strain QH0692.42 (HIV-1)"}, "[25]": {"biological_target": "Env of HIV-1 strain 6244_13_B5_4576 (HIV-1)"}, "[26]": {"biological_target": "HIV-1 Env of strain CNE30 (HIV-1)"}, "[27]": {"biological_target": "HIV-1 Env of strain 6041.v3.c23 (HIV-1)"}, "[28]": {"biological_target": "HIV-1 Env of strain ZM249M.PL1 (HIV-1)"}, "[29]": {"biological_target": "HIV-1 Env of strain C1080.c03 (HIV-1)"}}, "data": [{"substance": "NIH45-46 (antibody)", "values": [{"measurement": "IC80", "setting": "[1]", "value": 0.015, "unit": "µg/mL"}, {"measurement": "IC80", "setting": "[2]", "value": 0.13, "unit": "µg/mL"}, {"measurement": "IC50, pseudovirus neutralization", "setting": "[3]", "value": 0.034, "unit": "µg/mL"}, {"measurement": "IC50, pseudovirus neutralization", "setting": "[4]", "value": 1.61, "unit": "µg/mL"}, {"measurement": "IC50, pseudovirus neutralization", "setting": "[5]", "value": 0.02, "unit": "µg/mL"}, {"measurement": "IC50, pseudovirus neutralization", "setting": "[6]", "value": 0.009, "unit": "µg/mL"}, {"measurement": "IC80", "setting": "[7]", "value": 1.21, "unit": "µg/mL"}, {"measurement": "IC50, pseudovirus neutralization", "setting": "[8]", "value": "> 50", "unit": "µg/mL"}, {"measurement": "IC80", "setting": "[9]", "value": 8.22, "unit": "µg/mL"}, {"measurement": "IC80", "setting": "[10]", "value": 0.13, "unit": "µg/mL"}, {"measurement": "IC80", "setting": "[11]", "value": 0.447, "unit": "µg/mL"}, {"measurement": "IC50, pseudovirus neutralization", "setting": "[12]", "value": 0.095, "unit": "µg/mL"}, {"measurement": "IC50, pseudovirus neutralization", "setting": "[13]", "value": 2.5, "unit": "µg/mL"}, {"measurement": "IC80", "setting": "[14]", "value": 0.24, "unit": "µg/mL"}, {"measurement": "IC50, pseudovirus neutralization", "setting": "[15]", "value": 0.04, "unit": "µg/mL"}, {"measurement": "IC50, pseudovirus neutralization", "setting": "[16]", "value": 0.03, "unit": "µg/mL"}, {"measurement": "IC80", "setting": "[17]", "value": 0.054, "unit": "µg/mL"}, {"measurement": "IC50, pseudovirus neutralization", "setting": "[18]", "value": 0.14, "unit": "µg/mL"}, {"measurement": "IC80", "setting": "[19]", "value": 0.06, "unit": "µg/mL"}, {"measurement": "IC80", "setting": "[20]", "value": 10, "unit": "µg/mL"}, {"measurement": "IC80", "setting": "[21]", "value": 0.91, "unit": "µg/mL"}, {"measurement": "IC50, pseudovirus neutralization", "setting": "[22]", "value": 0.032, "unit": "µg/mL"}, {"measurement": "IC80", "setting": "[23]", "value": "> 50", "unit": "µg/mL"}, {"measurement": "IC50, pseudovirus neutralization", "setting": "[24]", "value": 0.72, "unit": "µg/mL"}, {"measurement": "IC80", "setting": "[25]", "value": 0.26, "unit": "µg/mL"}, {"measurement": "IC50, pseudovirus neutralization", "setting": "[26]", "value": 0.309, "unit": "µg/mL"}, {"measurement": "IC50, pseudovirus neutralization", "setting": "[27]", "value": 0.006, "unit": "µg/mL"}, {"measurement": "IC50, pseudovirus neutralization", "setting": "[28]", "value": 0.017, "unit": "µg/mL"}, {"measurement": "IC50, pseudovirus neutralization", "setting": "[29]", "value": 2.48, "unit": "µg/mL"}]}]}
